We go through 37 molecules from patent US5972599, “High affinity nucleic acid ligands of cytokines” (NeXstar Pharmaceuticals, Inc.).

First the molecules themselves.
B1: IL-10 ligand 10 (ssRNA)
RNA: GGGAGACAAGAAUAAACGCUCAACUGAGAUCUCUAAGAGCCUGGACUCAGCUCCGACUGACCUUCGACAGGAGGCUCACAACAGGC
modifications: 2'-F C and U
B2: IL-10 ligand 54 (ssRNA)
RNA: GGGAGACAAGAAUAAACGCUCAAAUCCCAAUCUCUAAGAGCCUGGAUGACAAUCGCAUUGGGCUUCGACAGGAGGCUCACAACAGGC
modifications: 2'-F C and U
B3: IL-10 ligand 2 (ssRNA)
RNA: GGGAGACAAGAAUAAACGCUCAAAUCUCUACUGAGCCUGGAUUCGCCAGAAGUUUUAUCACAGUUUCGACAGGAGGCUCACAACAGGC
modifications: 2'-F C and U
B4: IL-10 ligand 34 (ssRNA)
RNA: GGGAGACAAGAAUAAACGCUCAACUGAGAUCUCUAAGAGCCUGGACUCAGCUCCGAUUGAUCCUUCGACAGGAGGCUCACAACAGGC
modifications: 2'-F C and U
B5: IL-10 ligand 41 (ssRNA)
RNA: GGGAGACAAGAAUAAACGCUCAACUGAGAUCUCUAAGAGCCUGGACUCAGCUCCGAUUGAACCUUCGACAGGAGGCUCACAACAGGC
modifications: 2'-F C and U
B6: IL-10 ligand 68 (ssRNA)
RNA: GGGAGACAAGAAUAAACGCUCAAACAUCGUAUAAUCUCUCUAAGAGCCUGGAAUACGAUGAAUUCGACAGGAGGCUCACAACAGGC
modifications: 2'-F C and U
B7: IL-10 ligand 59 (ssRNA)
RNA: GGGAGACAAGAAUAAACGCUCAACGUAAAAGUUAUCGAAUCUCUGUGAGCCUGGAUCGAUUACUUCGACAGGAGGCUCACAACAGGC
modifications: 2'-F C and U
B8: IL-10 ligand 64 (ssRNA)
RNA: GGGAGACAAGAAUAAACGCUCAAACAUCGUAUAACUCUAAGCGCCUGGAUAUACGAUGAAUUCGACAGGAGGCUCACAACAGGC
modifications: 2'-F C and U
B9: IL-10 ligand 64a (ssRNA)
RNA: GGGAGACAAGAAUAAACGCUCAAACAUCGUAUAACUCUAAGAGCCUGGAUAUACGAUGAAUUCGACAGGAGGCUCACAACAGGC
modifications: 2'-F C and U
B10: IL-10 ligand 64b (ssRNA)
RNA: GGGAGACAAGAAUAAACGCUCAAACAUCGUAUAACUCUAAGUGCCUGGAUAUACGAUGAAUUCGACAGGAGGCUCACAACAGGC
modifications: 2'-F C and U
B11: IL-10 ligand 15 (ssRNA)
RNA: GGGAGACAAGAAUAAACGCUCAAUCUCUAUGAGCCUGGAUCGACGAACUCUCUACGGGCUGUGUUCGACAGGAGGCUCACAACAGGC
modifications: 2'-F C and U
B12: IL-10 ligand 55 (ssRNA)
RNA: GGGAGACAAGAAUAAACGCUCAAACAUCGUAUAAUCUCUAAGAGCCUGGAUAUACGAUGAAUUCGACAGGAGGCUCACAACAGGC
modifications: 2'-F C and U
B13: IL-10 ligand 3 (ssRNA)
RNA: GGGAGACAAGAAUAAACGCUCAACUGAGAUCUCUAAGAGCCUGGACUCAGCUACGAUUGAGCGUUUAUUCUUGUUCGACAGGAGGCUCACAACAGGC
modifications: 2'-F C and U
B14: IL-10 ligand 6 (ssRNA)
RNA: GGGAGACAAGAAUAAACGCUCAAAUCCCAAUCUCUAAGAGCCUGGAUAAGAAUGCGCAUUGGGCUUCGACAGGAGGCUCACAACAGGC
modifications: 2'-F C and U
B15: IL-10 ligand 57 (ssRNA)
RNA: GGGAGACAAGAAUAAACGCUCAAAUCCCAAUCUCUAAGAGCCUGGAUGAGAAUGCGCAUUGGGCUUCGACAGGAGGCUCACAACAGGC
modifications: 2'-F C and U
B16: IL-10 ligand 56 (ssRNA)
RNA: GGGAGACAAGAAUAAACGCUCAAUCUCUAAGAGCCUGGAUGUCGAGGGGCCAUUUCGCACGCUUCGACAGGAGGCUCACAACAGGC
modifications: 2'-F C and U
B17: IL-4 2'NH2-27 (ssRNA)
RNA: GGGAGACAAGAAUAAACGCUCAACCUUGUGGGGAGCCACGUAUACGGCCAUAGCAUACCGCAAUUCGACAGGAGGCUCACAACAGGC
modifications: 2'-NH2 C and U
B18: IL-4 2'F/NH2-13 (ssRNA)
RNA: GGGAGACAAGAAUAAACGCUCAACUCGGGAGCCAGAGUAACAACGGCACUAUAUAAUUUUACUUCGACAGGAGGCUCACAACAGGC
modifications: 2'-F C, 2'-NH2 U
B19: IL-4 2'NH2-B8 (ssRNA)
RNA: GGGAGACAAGAAUAAACGCUCAAUGUGGGGAGCCACAGUUAACGGCUUCAACUGAUUAGAAUUCGACAGGAGGCUCACAACAGGC
modifications: 2'-NH2 C and U
B20: IL-4 2'NH2-B26 (ssRNA)
RNA: GGGAGACAAGAAUAAACGCUCAAAUGGAGAGCCACAUUAACGGCAGCAUAUCACAGUAGGAAUUCGACAGGAGGCUCACAACAGGC
modifications: 2'-NH2 C and U
B21: IL-4 2'F/NH2-25 (ssRNA)
RNA: GGGAGACAAGAAUAAACGCUCAAAGAGCCGUUUUGGGGACCCACAGUAACGGGUUUAUGGUAUUCGACAGGAGGCUCACAACAGGC
modifications: 2'-F C, 2'-NH2 U
B22: IL-4 2'NH2-B5 (ssRNA)
RNA: GGGAGACAAGAAUAAACGCUCAACGAUAGUAUACACAUGAUGAUGGGGAGCCACGUGUACGGCUUCGACAGGAGGCUCACAACAGGC
modifications: 2'-NH2 C and U
B23: IL-4 2'NH2-17 (ssRNA)
RNA: GGGAGACAAGAAUAAACGCUCAAGUAUUGGGGAGCCACAUUACAACGGCACAGGCAACCAGGGUUCGACAGGAGGCUCACAACAGGC
modifications: 2'-NH2 C and U
B24: IL-4 2'NH2-B29 (ssRNA)
RNA: GGGAGACAAGAAUAAACGCUCAAUGACUGAACGAUGGUAUUGGAGAGCCACAUCAACGGCAAUUUCGACAGGAGGCUCACAACAGGC
modifications: 2'-NH2 C and U
B25: IL-4 2'NH2-B14 (ssRNA)
RNA: GGGAGACAAGAAUAAACGCUCAAUAAAUGGAGAGCCACACUAACGGCGUAUGAAAACACUCAUUCGACAGGAGGCUCACAACAGGC
modifications: 2'-NH2 C and U
B26: IL-4 2'NH2-B16 (ssRNA)
RNA: GGGAGACAAGAAUAAACGCUCAAUCACAAGCACCCUUGGGGAGCCACAUUAACGGCCUAGGCUUCGACAGGAGGCUCACAACAGGC
modifications: 2'-NH2 C and U
B27: IL-4 2'NH2-B24 (ssRNA)
RNA: GGGAGACAAGAAUAAACGCUCAAAGAUUUAAAGUAUUUGGGGAGCCACAUCAACGGCAUUGUGUUCGACAGGAGGCUCACAACAGGC
modifications: 2'-NH2 C and U
B28: IL-4 2'NH2-12 (ssRNA)
RNA: GGGAGACAAGAAUAAACGCUCAAGGACUGGUGAGCCACGUAUACGGUCUUAGGGGCUUGGGCGUUCGACAGGAGGCUCACAACAGGC
modifications: 2'-NH2 C and U
B29: IL-4 2'NH2-31 (ssRNA)
RNA: GGGAGACAAGAAUAAACGCUCAAGUGCUGGUGAGCCACGCAUACGGUCUUAGGGGCUUGAGCGUUCGACAGGAGGCUCACAACAGGC
modifications: 2'-NH2 C and U
B30: IL-4 2'NH2-B31 (ssRNA)
RNA: GGGAGACAAGAAUAAACGCUCAAGAGCUGGUGAGCCACGUAUACGGUCUUAGGGGCUUGGGCGUUCGACAGGAGGCUCACAACAGGC
modifications: 2'-NH2 C and U
B31: IL-4 2'F/NH2-19 (ssRNA)
RNA: GGGAGACAAGAAUAAACGCUCAAGUCUUCCAUGGGGAGCCACAUUAACGGCGCAAUACUGAACUUCGACAGGAGGCUCACAACAGGC
modifications: 2'-F C, 2'-NH2 U
B32: IL-4 2'NH2-B18 (ssRNA)
RNA: GGGAGACAAGAAUAAACGCUCAACGAUGGAGCGCCACAUCGCUAUAACGGCAUUUAACAAAAUUUCGACAGGAGGCUCACAACAGGC
modifications: 2'-NH2 C and U
B33: IL-4 2'F/NH2-41 (ssRNA)
RNA: GGGAGACAAGAAUAAACGCUCAAAGUAACGUGGGGAGCCACACGUAAUACGGCACUAAUUCGACAGGAGGCUCACAACAGGC
modifications: 2'-F C, 2'-NH2 U
B34: IL-4 2'F/NH2-8 (ssRNA)
RNA: GGGAGACAAGAAUAAACGCUCAAGUCGGAGCGAUGGAGAGCCACGAUAUACGGUCUGUGCGCUUCGACAGGAGGCUCACAACAGGC
modifications: 2'-F C, 2'-NH2 U
B35: IL-4 2'NH2-22 (ssRNA)
RNA: GGGAGACAAGAAUAAACGCUCAACAGAUGGUAUCUAGUGGAGAGCCACAUCAACGGCGCAGAUUCGACAGGAGGCUCACAACAGGC
modifications: 2'-NH2 C and U
B36: TNF 19C (ssRNA)
RNA: GGGAGCUCAGAAUAAACGCUCAAUGUCGAUCGUGUCAAGGUCCGUCCUACUUCUUCGACAUGAGGCCCGGAUCCGGC
B37: TNF 9C (ssRNA)
RNA: GGGAGCUCAGAAUAAACGCUCAAAUGGUGGAGGCCAUCUCAAACCCACGACACUUCGACAUGAGGCCCGGAUCCGGC

Sequence of IL-10 (P22301 19-178, one chain of several): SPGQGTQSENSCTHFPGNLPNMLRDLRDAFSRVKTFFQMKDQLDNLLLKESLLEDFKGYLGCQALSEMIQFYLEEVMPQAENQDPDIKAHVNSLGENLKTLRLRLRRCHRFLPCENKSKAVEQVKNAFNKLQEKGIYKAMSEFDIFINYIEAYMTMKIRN

One series concerns the target IL-10 (Homo sapiens, UniProt P22301 P22301:19-178). Briefly: filter; group statement, at 250 nM IL-10. Particulars: tags: Bachem or R&D Systems; chain copies: 2.
For the molecule B1, the binding result is listed as “binds”.
In the case of B2, the binding result is on record as “binds”.
On to B3, for which the binding result is recorded as “binds”.
For B4, the binding result is on record as “binds”.
Take B5: the binding result is recorded as “binds”.
On the same count and under the same terms, under B6 stands “binds”.
In the case of B7, the binding result is given as “binds”.
For B8, the binding result is listed as “binds”.
In the case of B9, the binding result was “binds”.
For B10, the binding result was “binds”.
On the same count and under the same terms, in the case of B11 it was “binds”.
As to B12, the binding result is given as “binds”.
The same measure, in the same setting: in the case of B13 it was “binds”; in that of B14, “binds”.
Regarding B15, the binding result is recorded as “binds”.
With B16, the binding result is reported as “binds”.

The target of the next series is IL-4 (Homo sapiens, UniProt P05112 P05112:25-153). The series can be described thus: filter; group 1 stated to bind IL-4. The conditions noted are these: tags: R&D Systems.
Sequence of IL-4 (P05112 25-153, one chain of several): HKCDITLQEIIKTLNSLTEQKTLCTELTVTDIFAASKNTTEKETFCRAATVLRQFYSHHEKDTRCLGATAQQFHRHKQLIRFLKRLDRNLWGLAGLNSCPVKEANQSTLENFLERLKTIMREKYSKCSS
Turning to B17, the binding result is reported as “binds”.
B18: the binding result is recorded as “binds”.
Turning to B19, the binding result is given as “binds”.
Same read-out and setting: under B20 stands “binds”; under B21, “binds”.
For the molecule B22, the binding result is given as “binds”.
As to B23, the binding result is “binds”.
For B24, the binding result is “binds”.
Turning to B25, the binding result is recorded as “binds”.
Turning to B26, the binding result was “binds”.
As to B27, the binding result is “binds”.
For the molecule B28, the binding result is “binds”.
On the same count and under the same terms, under B29 stands “binds”; under B30, “binds”; under B31, “binds”.
For B32, the binding result was “binds”.
Regarding B33, the binding result was “binds”.
As to B34, the binding result is given as “binds”.
Take B35: the binding result is reported as “binds”.

For another series, the target named is TNF-alpha (Homo sapiens, UniProt P01375 P01375:77-233). Briefly: filter; class I. Particulars: tags: Genzyme or R&D Systems; chain copies: 3 inferred.
Sequence of TNF-alpha (P01375 77-233, one chain of several): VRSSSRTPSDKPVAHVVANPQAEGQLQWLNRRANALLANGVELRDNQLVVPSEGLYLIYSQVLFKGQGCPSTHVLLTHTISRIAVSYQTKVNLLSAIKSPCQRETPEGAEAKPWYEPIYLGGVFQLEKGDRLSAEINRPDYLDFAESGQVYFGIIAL
Usually Kd stands for the free concentration of one partner at which half of the binding sites on the other are occupied at equilibrium, for simple one-to-one binding. Higher therefore signals weaker binding. Consider B36, for which the Kd was 83 nM.
Still for that read-out and setting: under B37 stands 120 nM.
